Source: the supplement of paper PMC10126150
± gives the standard deviation of the averaged measurements.

Tested on: ATP
Experiment: switch fluorescence ratio, 500 uM ATP over buffer (Cy3 cluster intensity, sum of 5 cycles each) (fold (ratio)); higher = stronger signal-on switching upon ATP binding; sequences stand for … in TCGTCGGCAGCGTCAGATGTGTATAAGAGACAGTTTTTTTTTTTTTTTTTTTTTTTTT…TC
Settings: aptamer strand: ATP DNA aptamer (quencher-CACCTGGGGGAGTATTGCGGAGGAAGG + anchor), 100 nM annealed; ATP concentration: 500 uM
In short: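 Imaging in selection buffer was followed by imaging after 15 min with 500 uM ATP at 22 °C, for Cy3-labelled switching-strand clusters annealed to 100 nM quencher-labelled ATP aptamer on a modified Illumina MiSeq flow-cell. Five of these buffer/ATP cycles ran, separated by NaOH stripping and re-annealing. The fluorescence ratio per cluster is summed target-cycle over summed buffer-cycle Cy3 intensity, averaged per switch-domain sequence; clusters outside 100-1000 RFU were removed.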
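Also: ATP exposure 15 min at 22 °C before imaging.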

| Sequence | switch fluorescence ratio |
| --- | --- |
| GGGTAAAGTT | 1.01 ± 0.027 |
| GGGTAAATCT | 1.04 ± 0.026 |
| GGGTAACCGA | 0.9832 ± 0.0019 |
| GGGTAACGGC | 1.01 ± 0.089 |
| GGGTAAGAAA | 0.9865 ± 0.0041 |
| GGGTAAGATC | 1.022 ± 0.0083 |
| GGGTAAGTTT | 1.007 ± 0.0044 |
| GGGTAATGGG | 0.982 ± 0.024 |
| GGGTAATTAC | 1.048 ± 0.0053 |
| GGGTAATTTG | 1 ± 0.03 |
| GGGTACCGTA | 0.959 ± 0.068 |
| GGGTACTGTA | 1.09 ± 0.041 |
| GGGTACTGTG | 0.971 ± 0.015 |
| GGGTACTTAG | 1.05 ± 0.041 |
| GGGTAGAAAG | 0.97 ± 0.013 |
| GGGTAGAATT | 1.03 ± 0.039 |
| GGGTAGCGGG | 1.01 ± 0.033 |
| GGGTAGGCAG | 1.18 ± 0.25 |
| GGGTAGGCGG | 0.941 ± 0.029 |
| GGGTAGGGGA | 1 ± 0.049 |
| GGGTAGGGGT | 1.02 ± 0.074 |
| GGGTAGGTG | 1.13 ± 0.039 |
| GGGTATAAGA | 0.9976 ± 0.0075 |
| GGGTATAGGA | 0.944 ± 0.033 |
| GGGTATAGTC | 1.02 ± 0.074 |

| Sequence | switch fluorescence ratio |
| --- | --- |
| GGGTATCGGG | 0.98857 ± 0.00067 |
| GGGTATCGTA | 1.01 ± 0.018 |
| GGGTATCTGT | 1.01 ± 0.032 |
| GGGTATGGCC | 1.01 ± 0.025 |
| GGGTATGGGT | 0.995 ± 0.043 |
| GGGTATGTAA | 1.01 ± 0.066 |
| GGGTATTCTG | 0.98 ± 0.053 |
| GGGTATTGCA | 0.996 ± 0.018 |
| GGGTATTGCG | 0.977 ± 0.083 |
| GGGTATTGTA | 0.999 ± 0.02 |
| GGGTCAAAGA | 0.9705 ± 0.0086 |
| GGGTCAAAGT | 1.01 ± 0.013 |
| GGGTCAATGG | 1.04 ± 0.031 |
| GGGTCAGAAA | 1.04 ± 0.11 |
| GGGTCAGGCT | 0.981 ± 0.027 |
| GGGTCATGGG | 0.989 ± 0.033 |
| GGGTCCAAAT | 1.02 ± 0.04 |
| GGGTCCAAGG | 1.03 ± 0.029 |
| GGGTCCCCGC | 1.12 ± 0.056 |
| GGGTCGCCTG | 0.992 ± 0.033 |
| GGGTCGTAGG | 1.002 ± 0.0011 |
| GGGTCTCCAT | 1.02 ± 0.03 |
| GGGTCTGGAG | 1 ± 0.034 |
| GGGTCTGGGG | 0.995 ± 0.022 |
| GGGTCTTCTC | 1.01 ± 0.053 |

| Sequence | switch fluorescence ratio |
| --- | --- |
| GGGTCTTGTG | 0.989 ± 0.022 |
| GGGTGAAATG | 0.994 ± 0.023 |
| GGGTGAACTT | 0.988 ± 0.033 |
| GGGTGACATT | 0.997 ± 0.094 |
| GGGTGAGAGG | 0.9944 ± 0.0075 |
| GGGTGAGGCA | 0.9988 ± 0.0086 |
| GGGTGATATT | 0.996 ± 0.026 |
| GGGTGATCGT | 0.997 ± 0.013 |
| GGGTGATGGC | 1.01 ± 0.013 |
| GGGTGCAAGC | 1.058 ± 0.0049 |
| GGGTGCATGC | 1.07 ± 0.084 |
| GGGTGCGGCT | 1.11 ± 0.14 |
| GGGTGCGGGC | 1.04 ± 0.098 |
| GGGTGGACAC | 0.947 ± 0.065 |
| GGGTGGAGTT | 0.9672 ± 0.0046 |
| GGGTGGATGA | 1.03 ± 0.042 |
| GGGTGGATTG | 0.983 ± 0.039 |
| GGGTGGGATG | 0.984 ± 0.017 |
| GGGTGGGCGG | 0.974 ± 0.022 |
| GGGTGGGCTC | 0.971 ± 0.026 |
| GGGTGGGGGT | 1.03 ± 0.018 |
| GGGTGGGTA | 1.03 ± 0.03 |
| GGGTGGGTTA | 1.01 ± 0.038 |
| GGGTGGTAAG | 0.997 ± 0.051 |
| GGGTGGTCTG | 1.01 ± 0.031 |

| Sequence | switch fluorescence ratio |
| --- | --- |
| GGGTGGTGGT | 0.981 ± 0.043 |
| GGGTGTCAGC | 1.02 ± 0.017 |
| GGGTGTGCGC | 1.0134 ± 5.8e-05 |
| GGGTGTGCGG | 0.972 ± 0.038 |
| GGGTGTGGG | 0.986 ± 0.05 |
| GGGTGTGTGG | 1 ± 0.017 |
| GGGTGTTAAC | 0.981 ± 0.057 |
| GGGTGTTAGT | 1 ± 0.016 |
| GGGTGTTCGG | 0.979 ± 0.017 |
| GGGTTAAGAT | 0.997 ± 0.0054 |
| GGGTTAAGTG | 1.02 ± 0.018 |
| GGGTTAGAGA | 0.9668 ± 0.0032 |
| GGGTTAGAGG | 0.9959 ± 0.0071 |
| GGGTTAGATC | 1.03 ± 0.039 |
| GGGTTAGCTT | 0.98 ± 0.031 |
| GGGTTAGTTG | 0.995 ± 0.046 |
| GGGTTATTTT | 0.999 ± 0.043 |
| GGGTTCGACA | 0.998 ± 0.019 |
| GGGTTCTAGT | 0.9972 ± 0.008 |
| GGGTTCTTAC | 0.999 ± 0.011 |
| GGGTTGAACG | 0.967 ± 0.03 |
| GGGTTGAGCG | 1.02 ± 0.012 |
| GGGTTGATTT | 0.958 ± 0.053 |
| GGGTTGCTTG | 0.981 ± 0.049 |
| GGGTTGCTTT | 1 ± 0.024 |

| Sequence | switch fluorescence ratio |
| --- | --- |
| GGGTTGGAGT | 0.9965 ± 0.0081 |
| GGGTTGGGAA | 0.988 ± 0.023 |
| GGGTTGGGTC | 0.996 ± 0.029 |
| GGGTTGTAGC | 0.9909 ± 0.0027 |
| GGGTTGTCGC | 1.01 ± 0.024 |
| GGGTTGTGAA | 0.994 ± 0.037 |
| GGGTTGTGGT | 1.01 ± 0.026 |
| GGGTTGTTCT | 0.9792 ± 0.0087 |
| GGGTTTAATA | 0.996 ± 0.034 |
| GGGTTTAGAT | 0.9854 ± 0.0059 |
| GGGTTTATCA | 1.03 ± 0.03 |
| GGGTTTATGC | 0.9921 ± 0.0067 |
| GGGTTTCAGG | 1.017 ± 0.0021 |
| GGGTTTCAGT | 0.9503 ± 0.0066 |
| GGGTTTCATG | 0.995 ± 0.024 |
| GGGTTTGAAT | 0.978 ± 0.032 |
| GGGTTTGAGG | 0.9806 ± 0.0072 |
| GGGTTTGCAC | 1.03 ± 0.026 |
| GGGTTTGCAT | 1.02 ± 0.034 |
| GGGTTTGCCT | 1.0216 ± 0.0002 |
| GGGTTTGGCG | 0.999 ± 0.2 |
| GGGTTTGTTG | 0.988 ± 0.026 |
| GGGTTTTAAG | 1 ± 0.021 |
| GGGTTTTACT | 0.991 ± 0.053 |
| GGGTTTTCTG | 0.945 ± 0.017 |

| Sequence | switch fluorescence ratio |
| --- | --- |
| GGGTTTTCTT | 0.961 ± 0.031 |
| GGGTTTTTCG | 0.994 ± 0.062 |
| GGTAAAAATT | 0.98453 ± 0.00014 |
| GGTAAAAGCT | 1.03 ± 0.057 |
| GGTAAAGGGT | 0.991 ± 0.016 |
| GGTAAAGGTA | 1 ± 0.029 |
| GGTAAATGTG | 1.03 ± 0.072 |
| GGTAACAGCT | 1.04 ± 0.051 |
| GGTAACAGTG | 1.07 ± 0.085 |
| GGTAAGACGT | 0.999 ± 0.038 |
| GGTAAGATAG | 1.01 ± 0.017 |
| GGTAAGGGGG | 0.99 ± 0.031 |
| GGTAATGCTT | 1 ± 0.05 |
| GGTAATTCTG | 0.9837 ± 0.0033 |
| GGTAATTTGG | 1 ± 0.023 |
| GGTACAGAAT | 0.9997 ± 0.0012 |
| GGTACAGAGC | 1 ± 0.064 |
| GGTACCAGGC | 1.019 ± 0.0021 |
| GGTACGAAGT | 1.01 ± 0.027 |
| GGTACGGATC | 1.03 ± 0.018 |
| GGTACGGGGT | 1 ± 0.028 |
| GGTACTATCG | 0.961 ± 0.071 |
| GGTACTATT | 0.991 ± 0.04 |
| GGTACTGGTA | 0.984 ± 0.057 |
| GGTACTTAGG | 1.06 ± 0.031 |

| Sequence | switch fluorescence ratio |
| --- | --- |
| GGTACTTGGG | 0.984 ± 0.033 |
| GGTACTTTTT | 1.07 ± 0.14 |
| GGTAGAGGGG | 0.9628 ± 0.0078 |
| GGTAGAGGTT | 0.985 ± 0.019 |
| GGTAGATGGT | 1.01 ± 0.012 |
| GGTAGGGTGG | 1.02 ± 0.048 |
| GGTAGGTGTC | 0.985 ± 0.031 |
| GGTAGGTGTT | 1.04 ± 0.037 |
| GGTAGTAAGA | 1.01 ± 0.047 |
| GGTAGTAATT | 0.998 ± 0.0029 |
| GGTAGTCTTT | 0.996 ± 0.02 |
| GGTAGTGAGC | 1.02 ± 0.02 |
| GGTAGTGCGT | 0.968 ± 0.043 |
| GGTAGTTAGG | 1.03 ± 0.013 |
| GGTATAAAGA | 0.984 ± 0.049 |
| GGTATAAGGG | 0.997 ± 0.02 |
| GGTATAATGG | 0.971 ± 0.03 |
| GGTATAATTA | 0.964 ± 0.024 |
| GGTATAATTT | 1.04 ± 0.044 |
| GGTATACTGT | 0.975 ± 0.029 |
| GGTATCAAGT | 0.9675 ± 0.0076 |
| GGTATGGAGC | 0.971 ± 0.039 |
| GGTATGGCGC | 0.986 ± 0.058 |
| GGTATGGGAG | 0.9913 ± 0.001 |
| GGTATGGGGA | 1 ± 0.022 |

| Sequence | switch fluorescence ratio |
| --- | --- |
| GGTATTAAGT | 1 ± 0.011 |
| GGTATTATCG | 0.969 ± 0.017 |
| GGTATTGCTT | 0.995 ± 0.0021 |
| GGTATTGGCA | 0.996 ± 0.022 |
| GGTATTGGCC | 0.987 ± 0.013 |
| GGTATTTATC | 0.986 ± 0.038 |
| GGTATTTTTA | 0.9758 ± 0.0046 |
| GGTCAAACCA | 1.03 ± 0.0097 |
| GGTCAATCTA | 0.946 ± 0.045 |
| GGTCACGGCA | 1 ± 0.013 |
| GGTCAGGGTT | 0.954 ± 0.035 |
| GGTCAGTGAT | 1.01 ± 0.06 |
| GGTCATAGTG | 1.01 ± 0.018 |
| GGTCATTTAG | 0.994 ± 0.031 |
| GGTCCAAAAT | 0.9848 ± 0.0089 |
| GGTCCAATTA | 0.977 ± 0.015 |
| GGTCCACCGT | 0.989 ± 0.014 |
| GGTCCAGGTC | 1.12 ± 0.057 |
| GGTCCAGGTT | 1.09 ± 0.068 |
| GGTCCATGCT | 0.961 ± 0.032 |
| GGTCCGTAGG | 1.01 ± 0.033 |
| GGTCCTACTG | 1.01 ± 0.017 |
| GGTCCTGTTG | 1.01 ± 0.035 |
| GGTCGCGGAT | 1.01 ± 0.019 |
| GGTCGCGTAG | 1.01 ± 0.03 |
